Measured values as given in paper PMC12319226 (Frontiers in Bioinformatics, 2025).
Changes are numbered by the printed parent chain.

T1: fHbp m001015 (Neisseria meningitidis fHbp v3.28, …, point mutant)
T1 chain: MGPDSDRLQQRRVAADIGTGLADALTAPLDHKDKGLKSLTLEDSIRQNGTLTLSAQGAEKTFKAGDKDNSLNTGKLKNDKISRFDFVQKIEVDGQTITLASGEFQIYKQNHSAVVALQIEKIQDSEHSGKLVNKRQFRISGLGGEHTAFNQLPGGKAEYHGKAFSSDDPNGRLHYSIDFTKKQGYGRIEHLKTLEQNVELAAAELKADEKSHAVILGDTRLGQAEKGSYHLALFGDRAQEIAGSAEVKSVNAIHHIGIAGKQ

T2: fHbp m001211 (Neisseria meningitidis fHbp v3.28-based …, point mutant)
T2 chain: T1 chain with Q223G, S249T, V250D, A252G

T3: fHbp m002421 (Neisseria meningitidis, designed fHbp …, point mutant)
T3 chain: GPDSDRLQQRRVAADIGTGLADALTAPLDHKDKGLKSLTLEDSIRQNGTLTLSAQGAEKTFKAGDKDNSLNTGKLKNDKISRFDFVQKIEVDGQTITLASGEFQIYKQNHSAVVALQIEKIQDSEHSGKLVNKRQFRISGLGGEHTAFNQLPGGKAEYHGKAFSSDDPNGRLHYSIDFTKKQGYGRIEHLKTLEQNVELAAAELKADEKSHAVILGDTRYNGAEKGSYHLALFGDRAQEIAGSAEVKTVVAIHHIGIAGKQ

T4: fHbp m001935 (Neisseria meningitidis; fHbp …, chimera)
T4 chain: T1 chain with L221Y, Q223G, S249T, N251V

T5: fHbp m002335 (Neisseria meningitidis; fHbp …, chimera)
T5 chain: T1 chain with L221Y, G222N, Q223S, S249T, A252G

T6: fHbp m002252 (Neisseria meningitidis; fHbp …, chimera)
T6 chain: T1 chain with L221Y, G222N, S249T, N251E, A252S

T7: fHbp m002420 (Neisseria meningitidis, designed fHbp …, chimera)
T7 chain: T3 chain with A251S

T8: fHbp m002332 (Neisseria meningitidis; fHbp …, chimera)
T8 chain: T1 chain with L221Y, G222N, Q223S, S249T, N251E, A252G

T9: fHbp m001691 (Neisseria meningitidis; fHbp …, point mutant)
T9 chain: T1 chain with G222N, Q223G, S249T, N251V, A252G

B1: chimeric antibody h12C1 (antibody, V domains shown)
VH: QVQLQESGPELVKPGASVKISCKASGYSFSDYNMSWVKQSNGKSLEWIGIIDPKYGTINYNQKFKGKATLTVDQASSTAYMQLNSLTSEDSAVYYCVRDYYGSSYFDYWGQGTTLTVSS
VL: DIVLTQSPSSIYASLGERVTLTCKASQDIHNYLNWFQQKPGKSPKTLIYRANRLVDGVPSRFSGGGSGQDYSLTISSLEFEDIGIYYCLQYDEFPPTFGGGTRLEIK
notes: also called humanized 12C1; source: Expi293, purified (MabSelect SuRe, SEC); copies: 2 + 2
B2: mAb 1E6 (human) (antibody, V domains shown)
VH: EVQLVQSGAEVKKPGSSVKVSCKASGGTVIDYPITWVRQAPGQGLEWVGGFVPLFRTSNYGQKFQGRVTITADKSTSTASMELNSLTSEDTAIYYCARGDTAMGPFDYWGQGTLVTVSS
VL: SYVLTQPPSLSVAPGKTATLTCGGNNIAGKTVHWYQQRPGQAPVLVISYDSDRPSGIPERFSGSNSANTATLTISRVEAGDEADYYCQVWDRNSDHWVFGGGTKLTVL
notes: source: Expi293, purified (MabSelect SuRe, SEC); copies: 2 + 2
B3: chimeric antibody hJAR5 (antibody, V domains shown)
VH: QVQMQQPGAELVKPGASVKLSCKASGYTFISYWMHWVKQRPGRGLEWIGRIAPDTGIIYYNEKFKNKATLTVDTPSSTAYMQLNSLTSEDSAVYYCARYLKYDGSTYRFDYWGQGTTLTVSS
VL: DIVMTQAAPSVPVTPGESVSISCRSSKSLLHSNGNTYLFWFLQRPGQSPQLLIYRMSNLASGVPDRFSGSGSGTSFTLRISRVEAEDVGVYYCMQHLEYPYTFGGGTKLEIK
notes: also called hJAR5-2; humanized JAR5; source: Expi293, purified (MabSelect SuRe, SEC); copies: 2 + 2
B4: mAb 4B3 (human) (antibody, V domains shown)
VH: QVQLVQSGGGLVKPGGSLRLSCAASGFPFSSYYMSWIRQAPGKGLEWVSDINNSGNVKEYADFVKGRLTISRDNVKNSMYLHMNSLRVEDTAVYYCARNRGRFDVWGQGTLVTVSA
VL: EIVMTQSPGTLSLSPGETATLSCRASQMISSPFLAWYQQRRGQAPRLLIYGASTRATDTPDRFRGSGSGTDFILTISRLEPEDFAVYYCQYYDDSPFTFGQGTKLEIK
notes: also called 4B3-2; source: Expi293, purified (MabSelect SuRe, SEC); copies: 2 + 2

Key:
Test in all cases: BLI
Settings in all cases: both partners purified
fHbp m001015 = molecular target: T1, fHbp m001015
fHbp m001211 = molecular target: T2, fHbp m001211
fHbp m002421 = molecular target: T3, fHbp m002421
fHbp m001935 = molecular target: T4, fHbp m001935
fHbp m002335 = molecular target: T5, fHbp m002335
fHbp m002252 = molecular target: T6, fHbp m002252
fHbp m002420 = molecular target: T7, fHbp m002420
fHbp m002332 = molecular target: T8, fHbp m002332
fHbp m001691 = molecular target: T9, fHbp m001691

Binder | Kd (fHbp m002421) [nM] | koff (fHbp m002421) [s⁻¹] | kon (fHbp m002421) [M⁻¹ s⁻¹] | Kd (fHbp m001935) [nM] | koff (fHbp m001935) [s⁻¹] | kon (fHbp m001935) [M⁻¹ s⁻¹] | Kd (fHbp m002335) [nM] | koff (fHbp m002335) [s⁻¹] | kon (fHbp m002335) [M⁻¹ s⁻¹] | Kd (fHbp m002252) [nM] | koff (fHbp m002252) [s⁻¹] | kon (fHbp m002252) [M⁻¹ s⁻¹] | Kd (fHbp m002420) [nM] | koff (fHbp m002420) [s⁻¹] | kon (fHbp m002420) [M⁻¹ s⁻¹] | Kd (fHbp m002332) [nM] | koff (fHbp m002332) [s⁻¹] | kon (fHbp m002332) [M⁻¹ s⁻¹] | Kd (fHbp m001691) [nM] | koff (fHbp m001691) [s⁻¹] | other results
B1 | 33.8 | 0.00845 | 250000 ± 2560 | 18.9 | 0.00626 | 330500 ± 3080 | 0.235 | 8.01e-05 | 340700 ± 1750 | 0.269 | 4.04e-05 | 150400 ± 1270 | 70.4 | 0.02143 ± 0.00013 | 304000 ± 6160 | 1.19 | 0.000253 | 212700 ± 1530 | 34 | 0.00857 | Kd (fHbp m001015): 187 nM; koff (fHbp m001015): 0.02355 ± 0.000153 s⁻¹; kon (fHbp m001015): 126000 ± 5980 M⁻¹ s⁻¹; Kd (fHbp m001211): 19.8 nM; koff (fHbp m001211): 0.00753 s⁻¹; kon (fHbp m001211): 381300 ± 3730 M⁻¹ s⁻¹; kon (fHbp m001691): 252000 ± 2680 M⁻¹ s⁻¹
B2 | 0.131 | 5.56e-05 | 424400 ± 3050 | 0.131 | 5.4e-05 | 412500 ± 2300 | 0.137 | 0.000102 | 744000 ± 3230 | 0.133 | 4.06e-05 | 304600 ± 2710 | 0.285 | 0.000154 | 542300 ± 2290 | 0.708 | 0.000264 | 373200 ± 1990 | 1.01 | 0.000364 | Kd (fHbp m001015): 1.11 nM; koff (fHbp m001015): 0.000418 s⁻¹; kon (fHbp m001015): 375100 ± 1120 M⁻¹ s⁻¹; Kd (fHbp m001211): 0.507 nM; koff (fHbp m001211): 0.000219 s⁻¹; kon (fHbp m001211): 431400 ± 2210 M⁻¹ s⁻¹; kon (fHbp m001691): 361600 ± 1550 M⁻¹ s⁻¹
B3 | 0.193 |  |  | 0.401 |  |  | 0.883 |  |  | 5.07 |  |  | 0.256 |  |  | 0.662 |  |  | 0.838 |  | 
B4 | 1.25 | 0.00101 | 803900 ± 3510 | 2.34 | 0.000973 | 415300 ± 2100 | 5.08 | 0.00109 | 214100 ± 1500 | 1.27 | 0.000415 | 327400 ± 2090 | 2.01 | 0.000887 | 441000 ± 4480 | 4.04 | 0.00118 | 291800 ± 1150 | 3.1 | 0.000731 | kon (fHbp m001691): 235300 ± 1280 M⁻¹ s⁻¹
